From the DeepSol protein solubility set come the findings set out here.

This series can be described thus: soluble on expression in E. coli; label from the status in PepcDB or PDB records.
Take “GGSVIVIDSKAAWDAQLAKGKEEHKPIVVDFTATWCGPCKMIAPLFETLSNDYAGKVIFLKVDVDAVAAVAEAAGITAMPTFHVYKDGVKADDLVGASQDKLKALVAKHAAA”: the “soluble on expression in E. coli” value is “soluble”.
For the sequence “GHHHHHHHHHHSSGHIEGRHMPAAPSPAPAGAVAGGPAAGVPAAASGAAEAAMPLPAALPGALAGSHAPRLPLAAGGRLARTRAVREFFDYCLTAQGELTPAALDALVRREIAAQLDGSPAQAEALGVWRRYRAYFDALAQLPGDGAVLGDKLDPAAMQLALDQRAALADRTLGEWAEPFFGDEQRRQRHDLERIRIANDTTLSPEQKAARLAALDAQLTPDERAQQAALHAQQDAVTKIADLQKAGATPDQMRAQIAQTLGPEAAARAAQMQQDDEAWQTRYQAYAAERDRIAAQGLAPQDRDARIAQLRQQTFTAPGEAIRAASLDRGAG”, the “soluble on expression in E. coli” value is reported as “soluble”.
The same measure for “GHLYLVPTPIGNLDDMTFRAVKTLTAVDLIAAEDTRNTQKLLNHFEITTKQISFHEHNTQERIPQLIAKLKQGMQIAQVSDAGMPSISDPGHELVNACIDAHIPVVPLPGA”: “not soluble”.
As for “GHMASMDISGGNTSRQPQKKSNQNIQVYVRVRPLNSRERCIRSAEVVDVVGPREVVTRHTLDSKLTKKFTFDRSFGPESKQCDVYSVVVSPLIEEVLNGYNCTVFAYGQTGTGKTHTMVGNETAELKSSWEDDSDIGIIPRALSHLFDELRMMEVEYTMRISYLELYNEELCDLLSTDDTTKIRIFDDSTKKGSVIIQGLEEIPVHSKDDVYKLLEKGKERRKTATTLMNAQSSRSHTVFSIVVHIRENGIEGEDMLKIGKLNLVDLAGSENVSKAGNEKGIRVRETVNINQSLLTLGRVITALVDRAPHVPYRESKLTRLLQESLGGRTKTSIIATISPGHKDIEETLSTLEYAHRAKNIQNKPEVNQKLTK”, the “soluble on expression in E. coli” value is given as “soluble”.
Next, “GHMQEKPPKELVNEWSLKIRKEMRVVDRQIRDIQREEEKVKRSVKDAAKKGQKDVCIVLAKEMIRSRKAVSKLYASKAHMNSVLMGMKNQLAVLRVAGSLQKSTEVMKAMQSLVKIPEIQATMRELSKEMMKAGIIEEMLEDTFESMDDQEEMEEEAEMEIDRILFEITAGALGKAPSKVTDALPEPEPPGAMAASEDEEEEEEALEAMQSRLATLRS”: “soluble”.
Next, “GHMVDLEQEFALGGRVLAFHGPLMYEAKILKIWDPSSKMYTSIPNDKPGGSSQATKEIKPQKLGEDESIPEEIINGKSFFIHYQGWKSSWDEWVGYDRIRAYNEENIAMKKRLANEAGSTGSAPATGGVKKPHRYR”: “soluble”; “GHQLPIWKQDEKSLTENDYYSFYKNTFKAYDDPLAYVHFNVEGQISFNSILYIPGSLPWELSKNMFDEESRGIRLYVKRVFINDKFSESIPRWLTFLRGIVDSENLPLNVGREILQKSKMLSIINKRIVLKSISMMKGLKETGGDKWTKFLNTFGKYLKIGVVEDKENQEEIASLVEFYSINSGDKKTDLDSYIENMKEDQKCIYYISGENKKTAQNSPSLEKLKALNYDVLFSLEPIDEFCLSSLTVNKYKGYEVLDVNKAD”: “soluble”; “GHRIARKVTDVWEITGPSSEDAIEVARWNPFTKEHEHFMEKSVAIAEIGKLVGLTKDEVLAEIERRKLVLLWMAKSGIRRYREVAPIIFKYYYSPDDVYERAAKELKTELI”: “not soluble”.
Next, “GIDPFTMLSSGDLTSASWELVVRVDHANGEQQTEITLRVSGDLHIGGVMLKLVEQMNIAQDWSDYALWWEQKRCWLLKTHWTLDKCGVQADANLLFTPQHKM”: “soluble”.
Consider “GIFPAEIEDLAQKQVAVDLTQPSRFLLKVLAGANIGAEFHLDSGKTYIVGSDPQVADIVLSDMSISRQHAKIIIGNDNSVLIEDLGSKNGVIVEGRKIEHQSTLSANQVVALGTTLFLLVDYAAPS”, for which the “soluble on expression in E. coli” value is “soluble”.
Regarding “GKDFKYNIGFNLSDVKNKVIDLRGYKSSTTELTAKIEGQPLNAIFGFETLGICDNQELYDKYAPMMQKYNPKWGMGDIIIKDRTGEGVINDEDRTVIGNSIPRFTFGLNLGFEYKGFDFSCFFQGVGKADGYVTMEAIQPMGINGARKEHYKESFNPQDPKPGAYFPRILSSDYNYAYMSHWVQDASYIRLKNLQIGYSFKIKGLNQLRVYASGENLFTATKYRTWDPETPVGARGFYPNVAVYSMGVNLNF”, the “soluble on expression in E. coli” value is “not soluble”.
Take “GKNMDTSAEPADVQANVSDSSRIEQEAIGMIEDFYEAYAASFMSTGKEALALGDSIKQKFLTKELIEKVDRLIEATDADPIIRAQDLGENDMKTLSVKHLNDNWYEVNYTSAKGSQYERAVSIPVRVVNVDGQYLIDDITPEN”: the “soluble on expression in E. coli” value is listed as “soluble”.
Regarding “GKQDRQMIVVDPRKTDTAKLADVHLQVEPHKDYELVSALRAAAKGFNIEAEQVAGVPTETIYEAVDICKNAQFGSLFFAMGVTMSRGKHRIIDNAIQFVIDMNAYTKFVLTPMRGHYNVNGFNQVSTWVTGYPYGVDFSRGYPRYNPGETASNDVLQRGDTDMMINVASDAGAHFPQKAVQHMAKIPLVCIDPHETPSSVISNIVLPPAITGLEVSGTAYRMDGVPIELRKVIKAPEGMLSDAEIMK”, the “soluble on expression in E. coli” value was “not soluble”.
Regarding “GKVFERCELARTLKRLGMDGYRGISLANWMCLAKWESGYNTRATNYNAGDRSTDYGIFQINSRYWCNDGKTPGAVNACHLSCSALLQDNIADAVACAKRVVRDPQGIRAWVAWRNRCQNRDVRQYVQGCGV”, the “soluble on expression in E. coli” value is “soluble”.
Next, “GLDNELSLVDGQDRTLTVQQWDTFLNGVFPLDRNRLTREWFHSGRAKYIVAGPGADEFEGTLELGYQIGFPWSLGVGINFSYTTPNILIDDGDITRPPFGLNSVITPNLFPGVSISADLGNGPGIQEVATFSVDVSGAEGGVAVSNAHGTVTGAAGGVLLRPFARLIASTGDSVTTYGEPWNMN”: “soluble”; “GMDAGRGAEHDEAVTSDDSASVEVPRRATPADAATVAQMLHDFNTEFGAPTPGTDELASRLSHLLAGEDVVVLLAGEPPTGLAVLSFRPNVWYPGPVAILDELYVRPGRRGHRLGSALLAASCGLVRSRGGALLEINVDGEDTDARRFYEARGFTNTEPNGTEPMLYYYREL”: “soluble”.
The same measure for “GMDIQNMPREQLGVCAEGNLHSVYLMFNANDNVESQLRPCIANVAQYIYELTDQYSDSAFNGFVAIGANYWDSLYPESRPEMLKPFPAMQEGNREAPAIEYDLFVHLRCDRYDILHLVANEISQMFEDLVELVEEERGFRFMDSRDLTGFVDGTENPKGRHRQEVALVGSEDPEFKGGSYIHVQKYAHNLSKWHRLPLKKQEDIIGRTKQDNIEYESEDKPLTSHIKRVNLKDENGKSIEILRQSMPYGSLKEQGLMFISTCRTPDHFEKMLHSMVFGDGAGNHDHLMHFTSALTGSSFFAPSLDFLMQFDN”: “soluble”; for “GMDTPANKPCIICVAITGSVPTKADNPAVPITVSEQVESTQEAFEAGAAIAHCHVRNDDGTPSSDPDRFARLTEGLHTHCPGMIVQFSTGGRSGAGQARGGMLPLKPDMASLSVGSNNFPSRVYENPPDLVDWLAAQMRSYRVTPEIEAFDLSHILRAIDMHGRGLLYGKLYVQFVMGVKNAMPADREVFDFYVRMMRTRAPQAEWCAAGIGANQLTVNEWAIAAGGHTRTGLEDNIRLDRQTLAPSNAALVRRSVELCDKYQRPVASWQQAREILGLPAAARN”: “soluble”; for “GMEPSAKHLQLQTLLSERHAYLMEGNREAMHQLLSSDFSFIDGQGRQFDAETYLDHYVDPDQIQWSNQISESMVVEVFETTALVQEIVEDHFSYGRSMYIGRFRSVSLYHWANEGWKWHFHQLTPLDPS”: “soluble”.
Regarding “GMIRVMATGVFDILHLGHIHYLKESKKLGDELVVVVARDSTARNNGKIPIFDENSRLALISELKVVDRAILGHEGDMMKTVIEVKPDIITLGYDQKFDEAELQSKINKLGITVKIVRISKYDGQLNSSSSVRKKIMELIGERY”, the “soluble on expression in E. coli” value was “soluble”.
Next, “GMKGISHRIAIPLILEVGNNKIYNIGQIIKKGNFKRVSLYFGEGIYELFGETIEKSIKSSNIEIEAVETVKNIDFDEIGTNAFKIPAEVDALIGIGGGKAIDAVKYMAFLRKLPFISVPTSTSNDGFSSPVASLLINGKRTSVPAKTPDGIVVDIDVIKGSPEKFIYSGIGDLVSNITALYDWKFEEENHKSIIDDFAVMISKKSVNSFVRTDFKSIKDEVFLKELVDSLTMNGIAMEIAGNSSPASGAEHLISHALDKFLPNPQLHGIQVGVATYIMSKVHKHREERIKKILSDTGFFNYVKGLNMKKSDFKRAISEAHLIKPARYTYLHVEKNCETAKEIVDTDEILRNILV”: “soluble”.
For “GMKLLLTRPEGKNAAMASALDALAIPYLVEPLLSVEAAAVTQAQLDELSRADILIFISTSAVSFATPWLKDQWPKATYYAVGDATADALALQGITAERSPADSQATEGLLTLPSLEQVSGKQIVIVRGKGGREAMADGLRLRGANVSYLEVYQRACPPLDAPASVSRWQSFGIDTIVVTSGEVLENLINLVPKDSFAWLRDCHIIVPSARVETQARKKGLRRVTNAGAANQAAVLDALGM”, the “soluble on expression in E. coli” value is recorded as “soluble”.
The same measure for “GMKLQTTIQHEPKDGSGFDRGLREFFEYRDTGVNEATGGMFGAHVIRAIPGKEAKPTWHTHTVGFQLFYVLRGWVEFEYEDIGAVMLEAGGSAFQPPGVRHRELRHSDDLEVLEIVSPAGFATSVVDLEEARKP”: “soluble”; for “GMKNIKIMRLVTGEDIIGNISESQGLITIKKAFVIIPMQATPGKPVQLVLSPWQPYTDDKEIVIDDSKVITITSPKDDIIKSYESHTSEIITPSGLITET”: “soluble”; for “GMKSLHRPDLYSWSTFNPARNIDFNGFAWIRPEGNILIDPVALSNHDWKHLESLGGVVWIVLTNSDHVRSAKEIADQTYTKIAGPVAEKENFPIYCDRWLSDGDELVPGLKVMELQGSKTPGELALLLEETTLITGDLVRAYRAGGLEILPDEKLMNKQKVVASVRRLAALEKVEAVLVGDGWSVFRDGRDRLKELVATLA”: “soluble”.
The same measure for “GMKTIIRQPQLYRFLKYCNESNLDKTVLDCGAGGDLPPLSIFVEDGYKTYGIEISDLQLKKAENFSRENNFKLNISKGDIRKLPFKDESMSFVYSYGTIFHMRKNDVKEAIDEIKRVLKPGGLACINFLTTKDERYNKGEKIGEGEFLQLERGEKVIHSYVSLEEADKYFKDMKVLFKEDRVVERINDGLKIKQGYVDYIAEKFSKSIL”: “soluble”; for “GMNTNLASFIVGLIIDENDRFYFVQKDGQTYALAKEEGQHTVGDTVKGFAYTDMKQKLRLTTLEVTATQDQFGWGRVTEVRKDLGVFVDTGLPDKEIVVSLDILPELKELWPKKGDQLYIRLEVDKKDRIWGLLAYQEDFQRLARPAYNNMQNQNWPAIVYRLKLSGTFVYLPENNMLGFIHPSERYAEPRLGQVLDARVIGFREVDRTLNLSLKPRSFEMLENDAQMILTYLESNGGFMTLNDKSSPDDIKATFGISKGQFKKALGGLMKAGKIKQDQFGTELI”: “soluble”.
The same measure for “GMQDERWNHPLYTTTAINDEELEGHAYIPGGLKVQTSSPMNDHPGTNPEQLLGLSLSTCLEATLEAVEKEHGLPHTGAVRVKVAFIGARAEYQFLVHAQVMVKGVDFDTAKAFTNEIENRCPVSKLLKNSGNYTIETVTDFKD”: “soluble”.
